# Measured values reported in publication PMC2912912 (BMC Structural Biology, 2010).
# “And” between values parts separate entries of the source, which are not always exact repeats. Equal entries are not always repeated.
# Target: the molecule itself
# Test: SEC; analytical gel filtration, Tricorn Superdex 200 10/300, samples 5 mg/mL, 20 mM Tris-HCl pH 8.0, 200 mM NaCl, 1 mM DTT, 4°C; molecular weight against globular standards
row,Protein,stoichiometry N
1,full-length IpgC (invasion plasmid gene C) (natural protein) MSLNITENESISTAVIDAINSGATLKDINAIPDDMMDDIYSYAYDFYNKGRIEEAEVFFRFLCIYDFYNVDYIMGLAAIYQIKEQFQQAADLYAVAFALGKNDYTPVFHTGQCQLRLKAPLKAKECFELVIQHSNDEKLKIKAQSYLDAIQDIKE,2
2,"IpgC^21-155 (invasion plasmid gene C, residues 21-155) (domain or fragment) SGATLKDINAIPDDMMDDIYSYAYDFYNKGRIEEAEVFFRFLCIYDFYNVDYIMGLAAIYQIKEQFQQAADLYAVAFALGKNDYTPVFHTGQCQLRLKAPLKAKECFELVIQHSNDEKLKIKAQSYLDAIQDIKE",4 and 2
3,"IpgC^10-155 (invasion plasmid gene C, residues 10-155) (domain or fragment, source: E. coli BL21 (DE3), purified (Ni2+-NTA Sepharose, TEV digestion, Resource Q)) SISTAVIDAINSGATLKDINAIPDDMMDDIYSYAYDFYNKGRIEEAEVFFRFLCIYDFYNVDYIMGLAAIYQIKEQFQQAADLYAVAFALGKNDYTPVFHTGQCQLRLKAPLKAKECFELVIQHSNDEKLKIKAQSYLDAIQDIKE",2
